# Measurements taken from the DeepSol protein solubility set.
# Test: soluble on expression in E. coli; label from the status in PepcDB or PDB records
row,Sequence,soluble on expression in E. coli
1,MNSDDEIYMEGSASSEDDMDDECLSDDDGIARHDQSASDYLNKKDKDNEVLDHDSLEAEMKKAISEVEAVLQVKTGVCRILLHKYKWNKESLLERFYEHPDTIAFLIDAQVIPRQQEVIPAGDAECDICCSMDELSGLSCNHRACAECWQAYLTNKIVSDAQSEIECMAPNCKLLIEDEKVLSYISDPTMVSKYRKLMVASYVEINCLLRWCPGIDCGKAVKVSHWEPRLVVCSCGTCFCFSCGQNWHEPLNCRHLKKWIKKCQDDSETMNWINANTKDCPKCMIPIEKNGGCNRMLCTNSGCRYEFCWMCLEPWTKHGYQYACNGYDETAVKNPQDAQEISRANLKRYLFYFNRYMGHEQSLQLEGKLNIKVAKKMEQMENMSMSWIEVQFLRKAVDILSECRRTLMYTYAFAFYLKKDNNSIIFESNQANLEMETEQLSGFLERDLEDEDLVTLKQKVQDKYRYVEQRRKVLLDHCAEGAEQDIWQYND,not soluble
2,MNSELKARYKVLGSEKEHTKSETLTETLIEVIVNGDVEPGSKISEPELARKYQVSRGPLREALMRLEGLGLIERIPHVGARVTTFSPAKLIELYSVREALEGMAARLAARHITQEELLSLEMLLSTHSKHIDQVEGASYFHQHGDFDFHYRIIQASRNSKLISLLCDELYHLLRMYRYQSPRAQSRPNEALTEHKFILEAIRNRDEELAEMLMRRHISGSRKLIQSQIIHTESLDKD,not soluble
3,MNSEQIYHVDFKQSKRIKSFHYAGGLFQLTSDGVIFVGKDKDNNELPPRWICSSLSVVAKTRDANSGEWGRLLEWVDDDGIKHQWAMPLALLQGDSSDVRRELARLGLTISPSKTARDLLASYIQVFPVEERARCVDKLGWYKEVFVTANEAIGQSLSVAGSVEDWRNSISRLADGNSRLVFAISAAFAPSLANLVGEDSGGFHFRGASSSGKTTALKVAASVWGKPDSYIRLWRSTANGLEGLAALHNDGLLILNELSQMDPKEAGECAYLLANGQGKTRASRCGTARQSMRWSLLFLSAGEESLTSLMAKAGQRCNAGQEIRLADIEADAGAEMGLFEQLHDHINPAAMSLALKEAASQYHGAVGLAWLHKIVKHRAELIALLTNKIQHFVAKVTKPEHSGQIQRVARRFALVAMAGEIATHYELTGWTRGTACNPAEKCFNAWLKDFGEHGNREDRAILSQVRAFFEKEGASRFENENHPNSERLFNRAGFFHTDSEGFRVFMVLSEVYRKEICQGFEPKMVNKVLINAGWIVPGNDGKASQKRRIKGIGIPRCYIFTEKVWSDDYLEHHHHHH,soluble
4,MNSIQIADETYVAADAARVSAAVADRCSWRRWWPDLRLQVTEDRADKGIRWTVTGALTGTMEIWLEPSMDGVLLHYFLHAEPTGVAAWQLARMNLARMTHHRRVAGKKMAFEVKTVLERSRPIGVSPVT,not soluble
5,MNSIWARLRLASSQLPIGGYSYSQGLEAALDNGWVRDAESARTWLVDQLQLNLARFEAPLLAGLLRAALIGDWAACDAASERHRASRETRELAQESRQMGFSLHQLLEALPELDAPGRAWLARQDPPNLAAAWAMAARAWRLDAEEALSAWFWSWLENQLAVLMKTLPLGQLAAQKLASSLLPELDRACAEALRRPAVEGSAAFGLALASMTHETQYSRLFRSLEHHHHHH,not soluble
6,MNSLPVAIIGGGPVGLAAAAHLAVRDVPFVLFEGKSEVGASILEWKHVSLFSPWKYNIDRAAKSLLEKESWKEPAGDRLPTGEQLVRDYLQPLAETKALKPYIYTNAPVQSIYRKGIDKIKDHNRENTPFIIRYKQDNDQKTLRARAVIDATGTWFSPNPIGAGGVPAIGEEEAKDSIYYGIPDVKGKDRSRYEGKTILVVGSGHSAIHTLLDLAQLKEAAPSTRILWAIRRNSPNGLFGGGQEDALPARGQLGLALEALLSKQKVELISSFEMEQIDRVEGRLSVVGVQNESPISLPLVDEIVANTGARPTVDYHRDIRYQLDSKLESVPALAPLIDPNIHSCGTVRPHGEKELRQPEKNFYIAGVKSYGRAPTFLLATGYEQVRSIVASLAGSKKEAERVELQLPKTGVCKSDFLAKRSCCLEHHHHHH,soluble
7,MNSPLAPVGVFDSGVGGLTVARAIIDQLPDEDIVYVGDTGNGPYGPLTIPEIRAHALAIGDDLVGRGVKALVIACNSASSACLRDARERYQVPVVEVILPAVRRAVAATRNGRIGVIGTRATITSHAYQDAFAAARDTEITAVACPRFVDFVERGVTSGRQVLGLAQGYLEPLQRAEVDTLVLGCTHYPLLSGLIQLAMGENVTLVSSAEETAKEVVRVLTEIDLLRPHDAPPATRIFEATGDPEAFTKLAARFLGPVLGGVQPVHPSRIH,not soluble
8,MNSQTTKDIPCFRSYLPDALRLRFEDKLTIRAIAQRLGLSHSTIHTLFQRFLASGIAWPLPDSVSFAQLDAILYANRKKELTEPQIREGSWRKERRTSYSREFKVRLAKQALQPGAVVARIAREHDINNNLLFKWKSQYEDGLLSDDDIQECMPVPVALTDTPEPTRPVTNPFWRNKHDERPEGAPGNVPRCELHLKSGVVKLFDPLTPELLRALIREMKGGIRLEHHHHHH,not soluble
9,MNTANFSAQQLQAERLLLLPSYILLKEGLVQDQAILVENGIFQDIGTHVELTKKYPDIVPVKLQDQLIMPGMIDGHHHLTQSFAKSLAYGEPSEIFKRIWVPLESNLNEQFVYLCTKLAALESLRGGFTTVCDAGTRSEIGMQLMVRALEETGLRCVLSLICNDGRAHSTLELRQNILENAQIFIKSYKQHKNVHPSLAISIPEVASDDMLYEVSKLCANSNIIFQVHVNEHLASVERSIIQQGMRPLEHLAKVGALGPQTLIAHATMLTPSELLLLQRTDTAVSYNPVASQWKGNAVASAHLMHELNIRFALGTDATRADGFRLLDAAEATQKLIFGIPTGDCSTGGGWMWLDHATTAGAEAVGLSQLTGSISIGKQADFLIIDLDTPEFCTSQDITWDMVRLCQRDQIQAVFVGGRICLWQGWPLDWDAKELMCRMKVLTKKAIEASPIQKLHPTAEQHRQLHGQTSQQQSVHI,not soluble
10,MNTDFQNILKQLGKQAQKEAAEKQAAEKNKQKQEQDFDFSQAVGQLSPLKNRQQYYAPPDKTPIKVRPKDNRADEENYFYIGSTYNDPPASFSKNGQGKNDIQRLKNGYYPVVTDVDLHGYTQEEAQKVLNEFIAFTQKRGVCGEIIHGSGLGSKGYKPVLKNMTRNWLMQHPDVLAYAEPREGNDGCVRILLKRKLRQQD,not soluble
11,MNTGHHKVADTLIDFLHRQFPWVESKKIDFLSYCNELMEKMVSGAYLRWIRSHPASYHRVYKTFMYEESLRLEFVSFEPWLPYFEGKMKKMLEQERPDLIVCTHSFPSRILQQLKRKKVLAIPVVNVYTDFFMNSIWGKRFIDYHFVPHQEAKRELIVKHGIDERRIVVTGIPAAALEHHHHHH,soluble
12,MNTLGRFLRLTTFGESHGDVIGGVLDGMPSGIKIDYALLENEMKRRQGGRNVFITPRKEDDKVEITSGVFEDFSTGTPIGFLIHNQRARSKDYDNIKNLFRPSHADFTYFHKYGIRDFRGGGRSSARESAIRVAAGAFAKMLLREIGIVCESGIIEIGGIKAKNYDFNHALKSEIFALDEEQEEAQKTAIQNAIKNHDSIGGVALIRARSIKTNQKLPIGLGQGLYAKLDAKIAEAMMGLNGVKAVEIGKGVESSLLKGSEYNDLMDQKGFLSNRSGGVLGGMSNGEEIIVRVHFKPTPSIFQPQRTIDINGNECECLLKGRHDPCIAIRGSVVCESLLALVLADMVLLNLTSKIEYLKTIYNEN,soluble
13,MNTQKPFENHLKSVDDLKTTYEEYRAGFIAFALEKNKRSTPYIERARALKVAASVAKTPKDLLYLEDIQDALLYASGISDKAKKFLTEDDKKESINNLIENFLEPAGEEFIDELIFRYLLFQGDSLGGTMRNIAGALAQQKLTRAIISALDIANIPYKWLDSRDKKYTNWMDKPEDDYELETFAKGISWTINGKHRTLMYNITVSLVKKNVDICLFNCEPEIYTPQKVHQQPEKYLLLGELKGGIDPAGADEHWKTANTALTRIRNKFSEKGLSPKTIFIGAAIEHSMAEEIWDQLQSGSLTNSANLTKTEQVGSLCRWIINI,soluble
14,MNTRNFSLPQLQNLPIEEARIVADALAVHATSRQIDSAASKLAALAEAGLKGDRQAYAAYQQLLYVLSLSDDVATAQTRRWLARAIYRVEERFMPAADLSRALSEEDFQKRLEQEIAAQSRERHPMSQYVFSGSASRAQLQVFLRHQWFRTFRLYRDAADLLVNLTDVDEAAALARYLYGELGEEDEKGSHPRLLAKLLEAIGLEADFQAVSTMPEEIAYLNNRARAFRHAEVGWGLAVFYITELVVPGNHEKLYRALLQAGLSEDQAEYYKVHISLVPPRAKREWQLIARRIPDVQFQNAFLTSLSQHFRVERAYYDAIWEEMQSVK,soluble
15,MNTVRWNIAVSPDVDQSVRMFIAAQGGGRKGDLSRFIEDAVRAYLFERAVE,soluble
16,MNVEQQYIDLFSQTEAMICKHSAEVLNAPRAAAFADFERLGFPTRKMEKYKYTDISKYFEPDYGLNLNRLQIPVNPYEVFKCDVPNMSTALYFVVNDAFYNKALPKTHLPEGVIFGSLKEVAAEHPELVKKYYGKLADTSKDGITAFNTAFAQDGVIFYVPKNVIVEKPIQLVNILRADVNFMVNRRVLIILEDGAQARLLICDHAMDNVNFLATQVIEVFAGENAVFDMYELEETHTSTVRISNLYVKQEANSNVLLNGMTLHNGTTRNTTEVLLAGEGAEINLCGMAIADKNQHVDNNTSIDHAVPNCTSNELFKYVLDDQSTGAFAGLVLVRPDAQHTNSQQTNRNLCATRDARMYTQPQLEIYADDVKCSHGATVGQLDENALFYMRARGIAEKEARLLLMFAFVNEVIDTIRLDALKDRLHLLVEKRFRGELNKCQGCAICK,not soluble
17,MNVERWAQALKEEYPRGLLGEREALVSLLVGKGLSHAEAVEVARALEAQGYAHFLPGERPRWFFSSRSLDLKALMRALDQEFPEFVGEGDEEEEALAFLAARLGDREVAREVLEAMRAAGYVERAYSPELARDRLFFRFPEALRLLG,soluble
18,MNVIYPLAVPKGRRLCCEVCEAPAERVCAACTVTYYCGVVHQKADWDSIHEKICQLLIPLRTSMPFYNSEEERQHGLQQLQQRQKYLIEFCYTIAQKYLFEGKHEDAVPAALQSLRFRVKLYGLSSVELVPAYLLLAEASLGLGRIVQAEEYLFQAQWTVLKSTDCSNATHSLLHRNLGLLYIAKKNYEEARYHLANDIYFASCAFGTEDIRTSGGYFHLANIFYDLKKLDLADTLYTKVSEIWHAYLNNHYQVLSQAHIQQMDLLGKLFENDTGLDEAQEAEAIRILTSILNIRESTSDKAPQKTIFVLKILVMLYYLMMNSSKAQEYGMRALSLAKEQQLDVHEQSTIQELLSLISTEDHPIT,soluble
19,MNVLRPTLLTLACLLASPGFADDLPSLGDASSAIVSPQQEYQLGRAWLALLRSQVSQLNDPQLKDYVETSVYKLVETSQVNDRRLEFILINSPQLNAFAAPGGIIGVNGGLFLNAQTEGEYASVLAHELAHLSQRHFARGVEAQQRMQVPMMAALLAGIVIAAAGAGDAGIATIAGTQAAAIQEQRRFSRQNEQEADRIGILNLEKAGYDPRSMPTMFERLMRQYRFDAKPPEFLLTHPVTESRIADTRNRAEQARQGGTEDSLRYQLIRARVQLTYEESPGLAAKRFRAQLDENPKNDIARYGLAIAQIKGSQWNEARENLKPLLAKSPNDVTYNLAQIELDMANSRLPDAQTRVERMLNLYPGNYPLNQIRVDLLLKQNRPADAEKALEGLLKSRPDDPDVWYLVAETRGLSGNIIGLHQARAEYFALVGDYRQAIQQLDFAKRRAGSNFPLSSRIDARQREMMDQEQMVKDMMRLEHHHHHH,soluble
20,MNVSEALKGALPNFIPGLGTLYVDPSTLPEGPFLAYDRAGNLVKVVFMVPLKKLNESHKYVDIGTKTLRALGITRIDHVNLIPSGPHPGVSEPHYHIELVLVSVDQERKVLEGEPY,soluble
